PMC11480844 (2024)

B1: R25 (TCR, V domains shown)
Valpha: GENVEQHPSTLSVQEGDSAVIKCTYSDSASNYFPWYKQELGKGPQLIIDIRSNVGEKKDQRIAVTLNKTAKHFSLHITETQPEDSAVYFCAAQKTSYDKVIFGPGTSLSVIP
Vbeta: EAQVTQNPRYLITVTGKKLTVTCSQNMNHEYMSWYRQDPGLGLRQIYYSMNVEVTDKGDVPEGYKVSRKEKRNFPLILESPSPNQTSLYFCASSTPGSLNEQFFGPGTRLTVL
B2: R24 (TCR, V domains shown)
Valpha: GQQVMQIPQYQHVQEGEDFTTYCNSSTTLSNIQWYKQRPGGHPVFLIQLVKSGEVKKQKRLTFQFGEAKKNSSLHITATQTTDVGTYFCAVHMNRDDKIIFGKGTRLHILP
Vbeta: EAQVTQNPRYLITVTGKKLTVTCSQNMNHEYMSWYRQDPGLGLRQIYYSMNVEVTDKGDVPEGYKVSRKEKRNFPLILESPSPNQTSLYFCASSLTSFYEQYFGPGTRLTVT
B3: R23 (TCR, V domains shown)
Valpha: KQEVTQIPAALSVPEGENLVLNCSFTDSAIYNLQWFRQDPGKGLTSLLLIQSSQREQTSGRLNASLDKSSGRSTLYIAASQPGDSATYLCAVRPQGGSEKLVFGKGTKLTVNP
Vbeta: EAQVTQNPRYLITVTGKKLTVTCSQNMNHEYMSWYRQDPGLGLRQIYYSMNVEVTDKGDVPEGYKVSRKEKRNFPLILESPSPNQTSLYFCASTVGGTQYFGPGTRLTVL
B4: R28 (TCR, V domains shown)
Valpha: AQTVTQSQPEMSVQEAETVTLSCTYDTSESDYYLFWYKQPPSRQMILVIRQEAYKQQNATENRFSVNFQKAAKSFSLKISDSQLGDAAMYFCAYRSAGNQGAQKLVFGQGTRLTINP
Vbeta: ETGVTQSPTHLIKTRGQQVTLRCSSQSGHNTVSWYQQALGQGPQFIFQYYREEENGRGNFPPRFSGLQFPNYSSELNVNALELDDSALYLCASSLGRGTYEQYFGPGTRLTVT
B5: R26 (TCR, V domains shown)
Valpha: GQQVMQIPQYQHVQEGEDFTTYCNSSTTLSNIQWYKQRPGGHPVFLIQLVKSGEVKKQKRLTFQFGEAKKNSSLHITATQTTDVGTYFCAGQDYAGKSTFGDGTTLTVKP
Vbeta: DTGVSQNPRHKITKRGQNVTFRCDPISEHNRLYWYRQTLGQGPEFLTYFQNEAQLEKSRLLSDRFSAERPKGSFSTLEIQRTEQGDSAMYLCASSSGGRFYGYTFGSGTRLTVV
B6: R21 (TCR, V domains shown)
Valpha: AQKVTQAQTEISVVEKEDVTLDCVYETRDTTYYLFWYKQPPSGELVFLIRRNSFDEQNEISGRYSWNFQKSTSSFNFTITASQVVDSAVYFCALGTYGNNRLAFGKGNQVVVIP
Vbeta: NAGVTQTPKFRILKIGQSMTLQCAQDMNHNYMYWYRQDPGMGLKLIYYSVGAGITDKGEVPNGYNVSRSTTEDFPLRLELAAPSQTSVYFCASTKGGPSSYEQYFGPGTRLTVT

Biological target: T1, peptide on HLA-B*07:02 (human)
T1 peptide: VPSVWRSSL
Assay: activation reporter or marker

| Binder | binding result |
| --- | --- |
| B1 | recognises |
| B2 | recognises |
| B3 | recognises |
| B4 | recognises |
| B5 | recognises |
| B6 | recognises |
